Positions count from the first letter of the chain named. Where two headings read alike, the source gives them in different places.
Legend:
[1] = biological target: T1, cynomolgus monkey CD16, full length, on FlpinCHO cells (cynomolgus monkey, UniProt Q8SPW2 17-254); assay: FACS on FlpinCHO cells
T1 construct: also called FlpinCHO-cyno CD16; Flipin CHO-cyno CD16
Protocol: (§1) The required cells were scale-up cultured in a T-75 cell culture flask to the logarithmic growth phase. The medium was aspirated, and the cells were washed twice with a PBS buffer and then digested with trypsin. After the digestion was terminated, the cells were washed twice with the PBS buffer. The cells were counted, and then the cell pellet was resuspended with a [PBS+2% (w/w) BSA] blocking solution to 2×10⁶ cells/ml, and added to a 96-well FACS reaction plate at 50 μl/well. […] 50 μl/well of the antibody to be detected was added at different concentrations, and incubated on ice for 1 hour. […] The mixture was centrifuged and washed 5 times with PBS, and FACS (FACS Canto II, purchased from BD Company) was used for detection and result analysis. Data analysis was performed by software (CellQuest) to obtain the mean fluorescence intensity (MFI) of the cells. Then, software (GraphPad Prism8) was used for analysis, data fitting and EC50 value calculation.
(§2) Flipin CHO-cyno CD16 cells were subjected to FACS detection and data analysis according to the method of Example 3.1.

[2] = biological target: T2, Human CD16a (158F)-his (human); assay: SPR (Biacore), antibody captured on Protein A
T2 construct: entry holds ECD, AVI tag, linker and His tag
Outline: (§3)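 Protein A–captured antibody was probed with CD16-his ECD in HBS-EP+ at 25 °C: five 2-fold dilutions from 200 nM, 240 s at 30 μL/min, dissociation up to 600 s. Glycine pH 1.5 regenerated the chip. Apparent KD came from a double-referenced 1:1 Langmuir fit.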

[3] = biological target: T3, human CD16a (158V), full length, on cells (human, UniProt P08637 17-254); assay: cell-based or functional assay
[4] = biological target: T4, human CD16b (NA1), full length, on FlpinCHO cells (human, UniProt O75015 17-200); assay: FACS on FlpinCHO cells
T4 construct: also called FlpinCHO-human CD16b (NA1)
T4 chain: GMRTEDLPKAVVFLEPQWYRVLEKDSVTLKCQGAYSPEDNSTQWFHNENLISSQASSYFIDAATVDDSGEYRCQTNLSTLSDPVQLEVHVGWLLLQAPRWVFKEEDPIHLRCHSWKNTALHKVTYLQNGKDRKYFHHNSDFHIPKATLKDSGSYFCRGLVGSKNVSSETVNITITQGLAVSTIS
Protocol: as §1
(§4) The binding of an antibody to be detected to FlpinCHO-human CD16b cells was detected according to the method of Example 3.1.

[5] = biological target: T5, human CD16b (NA2), full length, on FlpinCHO cells (human, UniProt O75015 17-200); assay: FACS on FlpinCHO cells
T5 construct: also called FlpinCHO-human CD16b (NA2)
T5 chain: T4 chain with R20S, N49S, D66N, V90I
Protocol: as §1, §4

[6] = biological target: T3, human CD16a (158V), full length, on …; assay: FACS on FlpinCHO cells
Protocol: as §1
(§5) The binding of a humanized antibody to FlpinCHO-human CD16a cells was detected according to the method of Example 3.1.

[7] = biological target: T6, human CD16a (158F), full length, on FlpinCHO cells (human, UniProt P08637 17-254); assay: FACS on FlpinCHO cells
Protocol: as §1, §5

[8] = biological target: T3, human CD16a (158V), full length, on …; assay: FACS, biotinylated antibody, +10 mg/mL human immunoglobulin
[9] = biological target: T6, human CD16a (158F), full length, on …; assay: as above
[10] = biological target: T7, Human CD16a (158V)-his (human); assay: SPR (Biacore), antibody captured on Protein A
T7 construct: entry holds ECD, AVI tag, linker and His tag
Outline: as §3

[11] = biological target: T3, human CD16a (158V), full length, on …; assay: FACS on FlpinCHO cells; remark: listed apart in the source
Outline: (§6)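 EC50 comes from fitted concentration–MFI curves. Antibody dilutions were bound to the cells for 1 hour on ice in PBS blocking buffer with 2% BSA, followed by washing and flow cytometric readout.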

[12] = biological target: T6, human CD16a (158F), full length, on …; assay: FACS on FlpinCHO cells; remark: listed apart in the source
Outline: as §6

[13] = biological target: T4, human CD16b (NA1), full length, on …; assay: FACS on FlpinCHO cells
Outline: (§7)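 EC50 values come from fitted MFI curves measured by FACS. Antibody dilutions were bound for 1 hour on ice to CD16b-transfected FlpinCHO cells suspended in PBS with 2% BSA blocking solution.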

[14] = biological target: T5, human CD16b (NA2), full length, on …; assay: FACS on FlpinCHO cells
Outline: as §7

[15] = biological target: T3, human CD16a (158V), full length, on …; assay: FACS, biotinylated antibody
[16] = biological target: T6, human CD16a (158F), full length, on …; assay: FACS, biotinylated antibody
[17] = biological target: T3, human CD16a (158V), full length, on …; assay: cell-based or functional assay; remark: listed apart in the source
[18] = biological target: T1, cynomolgus monkey CD16, full length, on …; assay: FACS on FlpinCHO cells; remark: listed apart in the source
Protocol: as §1, §2

T1 sequence (Q8SPW2 other isoform, or with tags, fused parts or gaps limits assumed): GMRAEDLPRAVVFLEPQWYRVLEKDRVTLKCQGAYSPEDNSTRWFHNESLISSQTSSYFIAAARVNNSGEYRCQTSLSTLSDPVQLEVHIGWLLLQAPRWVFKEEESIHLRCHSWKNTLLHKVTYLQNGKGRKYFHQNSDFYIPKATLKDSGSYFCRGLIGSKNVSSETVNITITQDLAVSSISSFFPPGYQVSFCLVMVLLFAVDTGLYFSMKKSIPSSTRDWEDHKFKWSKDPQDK

B1: VHH12-03 humanized VHH-Fc antibody (Fc fusion)
chain: EVQLVESGGGLVQPGGSLRLSCAASGITFSSYAMGWYRQAPGKQRELVAAINRFGLTNYVDSVKGRFTISRDNAKNSLYLQMNSLRAEDTAVYYCNTGGVYSHPDYYTGTYWGQGTMVTVSSEPKSSDKTHTCPPCPAPEEFGGPSVFLFPPKPKDTLMISRTPEVTCVVVAVSHEDPEVKFNWYVDGVEVHNAKTKPREEQYNSTYRVVSVLTVLHQDWLNGKEYKCKVSNKALPAPIEKTISKAKGQPREPQVYTLPPSREEMTKNQVSLTCLVKGFYPSDIAVEWESNGQPENNYKTTPPVLDSDGSFFLYSKLTVDKSRWQQGNVFSCSVMHEALHNHYTQKSLSLSPGK
EC50 [1]: 0.8 nM | Maximum mean fluorescence intensity [1]: 18000 | Kd [2]: 55.7 nM | koff [2]: 0.0244 s⁻¹ | kon [2]: 438000 M⁻¹ s⁻¹ | EC50, activation activity for Jurkat cell [3]: 0.02 nM | Maximum fluorescence value [3]: 155000 | EC50 [4]: 1.37 nM | Maximum mean fluorescence intensity [4]: 47300 | Maximum mean fluorescence intensity [5]: 72700 | EC50 [6]: 0.48 nM | Maximum mean fluorescence intensity [6]: 7750 | EC50 [7]: 0.48 nM | Maximum mean fluorescence intensity [7]: 8810

B2: VHH12-02 humanized VHH-Fc antibody (Fc fusion)
chain: B1 chain with N58Y
EC50 [1]: 0.74 nM | Maximum mean fluorescence intensity [1]: 16900 | Kd [2]: 75.1 nM | koff [2]: 0.0237 s⁻¹ | kon [2]: 316000 M⁻¹ s⁻¹ | EC50, activation activity for Jurkat cell [3]: 0.01 nM | Maximum fluorescence value [3]: 148000 | EC50 [4]: 0.94 nM | Maximum mean fluorescence intensity [4]: 39700 | Maximum mean fluorescence intensity [5]: 73300 | EC50 [6]: 0.45 nM | Maximum mean fluorescence intensity [6]: 6600 | EC50 [7]: 0.46 nM | Maximum mean fluorescence intensity [7]: 7440

B3: VHH02 VHH-Fc antibody (Fc fusion)
chain: EVQLVESGGGLVQAGGSLRLSCATSGITFSSYAMGWYRQAPGKQRELVAGINRFGLTNYADSVKGRFTISRDNAKNTVYLQMTSLKSEDTAVYYCNTGGVYSHPNYYTGIYWGQGTQVTVSSEPKSSDKTHTCPPCPAPEFEGGPSVFLFPPKPKDTLMISRTPEVTCVVVAVSHEDPEVKFNWYVDGVEVHNAKTKPREEQYNSTYRVVSVLTVLHQDWLNGKEYKCKVSNKALPAPIEKTISKAKGQPREPQVYTLPPSREEMTKNQVSLTCLVKGFYPSDIAVEWESNGQPENNYKTTPPVLDSDGSFFLYSKLTVDKSRWQQGNVFSCSVMHEALHNHYTQKSLSLSPGK
EC50 [8]: 1.18 nM | Maximum mean fluorescence intensity [8]: 7660 | EC50 [9]: 1.21 nM | Maximum mean fluorescence intensity [9]: 6020 | Kd [10]: 96.5 nM | koff [10]: 0.0179 s⁻¹ | kon [10]: 186000 M⁻¹ s⁻¹ | Kd [2]: 132 nM | koff [2]: 0.027 s⁻¹ | kon [2]: 205000 M⁻¹ s⁻¹ | EC50 [11]: 0.3 nM | Maximum mean fluorescence intensity [11]: 6000 | EC50 [12]: 1.17 nM | Maximum mean fluorescence intensity [12]: 5210 | EC50 [13]: 4.27 nM | Maximum mean fluorescence intensity [13]: 31900 | EC50 [14]: 5.45 nM | Maximum mean fluorescence intensity [14]: 52400 | EC50 [15]: 0.33 nM | Maximum mean fluorescence intensity [15]: 7300 | EC50 [16]: 0.33 nM | Maximum mean fluorescence intensity [16]: 6310 | EC50, activation activity for Jurkat cell [17]: 0.3 nM | Maximum fluorescence value [17]: 178000 | EC50 [18]: 0.88 nM | Maximum mean fluorescence intensity [18]: 17100

B4: VHH12-04 humanized VHH-Fc antibody (Fc fusion)
chain: B1 chain with V60A, S62F
EC50 [1]: 0.64 nM | Maximum mean fluorescence intensity [1]: 18300 | Kd [2]: 50.5 nM | koff [2]: 0.0307 s⁻¹ | kon [2]: 607000 M⁻¹ s⁻¹ | EC50, activation activity for Jurkat cell [3]: 0.01 nM | Maximum fluorescence value [3]: 162000 | EC50 [4]: 1.37 nM | Maximum mean fluorescence intensity [4]: 47200 | Maximum mean fluorescence intensity [5]: 75400 | EC50 [6]: 0.47 nM | Maximum mean fluorescence intensity [6]: 8090 | EC50 [7]: 0.47 nM | Maximum mean fluorescence intensity [7]: 9410

B5: VHH12-07 humanized VHH-Fc antibody (Fc fusion)
chain: B1 chain with M117Q
EC50 [1]: 0.68 nM | Maximum mean fluorescence intensity [1]: 18500 | Kd [2]: 55.8 nM | koff [2]: 0.032 s⁻¹ | kon [2]: 574000 M⁻¹ s⁻¹ | EC50, activation activity for Jurkat cell [3]: 0.03 nM | Maximum fluorescence value [3]: 153000 | EC50 [4]: 1.25 nM | Maximum mean fluorescence intensity [4]: 45500 | Maximum mean fluorescence intensity [5]: 73200 | EC50 [6]: 0.48 nM | Maximum mean fluorescence intensity [6]: 7950 | EC50 [7]: 0.46 nM | Maximum mean fluorescence intensity [7]: 9180

B6: VHH12-08 humanized VHH-Fc antibody (Fc fusion)
chain: B1 chain with V60A, S62F, D72V
EC50 [1]: 0.44 nM | Maximum mean fluorescence intensity [1]: 18300 | Kd [2]: 48.6 nM | koff [2]: 0.0294 s⁻¹ | kon [2]: 605000 M⁻¹ s⁻¹ | EC50, activation activity for Jurkat cell [3]: 0.01 nM | Maximum fluorescence value [3]: 142000 | EC50 [4]: 0.98 nM | Maximum mean fluorescence intensity [4]: 52100 | Maximum mean fluorescence intensity [5]: 77300 | EC50 [6]: 0.32 nM | Maximum mean fluorescence intensity [6]: 7920 | EC50 [7]: 0.31 nM | Maximum mean fluorescence intensity [7]: 9010
